In patent US20240124607A1 (Merck Sharp & Dohme, published 2024):

Tests used:
Assay in all cases: SPR, AB0621 on Protein A chip, 25C, pH 7.4
human FcγRI = human FcγRI (human, UniProt P12314 16-288, limits assumed)
Description: (§1) AB0621 was captured onto a Protein A chip (Cytiva, #29127556). Human FcγRs were titrated over captured AB0621 as 3-fold serial dilutions starting from 300 nM for FcγRI, 1000 nM for FcγRIIA R131 and H131, and 3000 nM for FcγRIIB and FcγRIIIB. Association was monitored for 120 sec and dissociation was monitored for 180 sec. Assays were run at 25° C. at pH 7.4. The surface of the chip was regenerated with 10 mM glycine pH 1.5 for 20 sec at 30 μL/min.

human FcγRIIA R131 = target: T1, human FcγRIIA R131 (human, UniProt P12318 34-218, limits assumed)
T1 sequence (looked up): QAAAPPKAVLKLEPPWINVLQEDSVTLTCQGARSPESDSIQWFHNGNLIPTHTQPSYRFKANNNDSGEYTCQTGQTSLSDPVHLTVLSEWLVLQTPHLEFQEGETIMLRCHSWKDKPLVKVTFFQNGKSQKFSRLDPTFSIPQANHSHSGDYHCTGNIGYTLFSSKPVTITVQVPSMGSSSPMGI
Description: as §1

human FcγRIIB = target: T2, human FcγRIIB (human, UniProt P31994 43-217, limits assumed)
T2 sequence (looked up): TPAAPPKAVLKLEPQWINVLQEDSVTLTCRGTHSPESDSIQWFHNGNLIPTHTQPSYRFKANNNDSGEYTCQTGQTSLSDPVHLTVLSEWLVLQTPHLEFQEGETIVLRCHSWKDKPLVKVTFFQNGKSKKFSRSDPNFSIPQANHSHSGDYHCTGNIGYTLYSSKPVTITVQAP
Description: as §1

Chain of human FcγRI (P12314 16-288 limits assumed): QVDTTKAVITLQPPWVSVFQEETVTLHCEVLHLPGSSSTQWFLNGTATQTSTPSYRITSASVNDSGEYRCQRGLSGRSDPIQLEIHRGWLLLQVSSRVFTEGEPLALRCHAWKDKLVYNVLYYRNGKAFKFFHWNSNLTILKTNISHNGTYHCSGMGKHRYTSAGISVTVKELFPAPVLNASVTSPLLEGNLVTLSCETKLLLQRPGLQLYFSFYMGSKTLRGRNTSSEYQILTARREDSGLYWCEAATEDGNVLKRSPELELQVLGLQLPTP

B1: AB0621 F3' CEACAM5 TriNKET (bispecific antibody, human IgG1, kappa)
chain: DIVMTQSPDSLAVSLGERATINCKSSHSLLYGNFQNNYLAWYQQKPGQPPKLLIYWASTRESGVPDRFSGSGSGTDFTLTISSLQAEDVAVYYCQQYYSYPYTFGCGTKLEIKGGGGSGGGGSGGGGSGGGGSQVQLVQSGAEVKKPGASVKVSCKASGYTFTAYTIHWVRQAPGQCLEWMGYINPSSGYTEYNQKFKDRTTLTADTSISTAYMELSRLRSDDTAVYYCTREGGLLWFDYWGQGTLVTVSSGSDKTHTCPPCPAPELLGGPSVFLFPPKPKDTLMISRTPEVTCVVVDVSHEDPEVKFNWYVDGVEVHNAKTKPREEQYNSTYRVVSVLTVLHQDWLNGKEYKCKVSNKALPAPIEKTISKAKGQPREPRVYTLPPCRDELTKNQVSLTCLVKGFYPSDIAVEWESNGQPENNYKTTPPVLVSDGSFTLYSKLTVDKSRWQQGNVFSCSVMHEALHNHYTQKSLSLSPG
heavy: EVQLVESGGGLVKPGGSLRLSCAASGFTFSSYSMNWVRQAPGKGLEWVSSISSSSSYIYYADSVKGRFTISRDNAKNSLYLQMNSLRAEDTAVYYCARGAPIGAAAGWFDPWGQGTLVTVSSASTKGPSVFPLAPSSKSTSGGTAALGCLVKDYFPEPVTVSWNSGALTSGVHTFPAVLQSSGLYSLSSVVTVPSSSLGTQTYICNVNHKPSNTKVDKKVEPKSCDKTHTCPPCPAPELLGGPSVFLFPPKPKDTLMISRTPEVTCVVVDVSHEDPEVKFNWYVDGVEVHNAKTKPREEQYNSTYRVVSVLTVLHQDWLNGKEYKCKVSNKALPAPIEKTISKAKGQPREPQVCTLPPSRDELTENQVSLTCLVKGFYPSDIAVEWESNGQPENNYKTTPPVLDSDGSFFLYSWLTVDKSRWQQGNVFSCSVMHEALHNHYTQKSLSLSPG
light: DIQMTQSPSSVSASVGDRVTITCRASQGISSWLAWYQQKPGKAPKLLIYAASSLQSGVPSRFSGSGSGTDFTLTISSLQPEDFATYYCQQGVSFPRTFGGGTKVEIKRTVAAPSVFIFPPSDEQLKSGTASVVCLLNNFYPREAKVQWKVDNALQSGNSQESVTEQDSKDSTYSLSSTLTLSKADYEKHKVYACEVTHQGLSSPVTKSFNRGEC
Kd (human FcγRI): 14 nM | kon (human FcγRI): 2.6e+06 M⁻¹ s⁻¹ | Kd (human FcγRIIA R131): 330 nM | Kd (human FcγRIIB): 3300 nM
